Measured values reported in IntAct's records for PubMed 7561682.

B1: Focal adhesion kinase 1 (Homo sapiens), Q05397 (parent)
chain: MAAAYLDPNLNHTPNSSTKTHLGTGMERSPGAMERVLKVFHYFESNSEPTTWASIIRHGDATDVRGIIQKIVDSHKVKHVACYGFRLSHLRSEEVHWLHVDMGVSSVREKYELAHPPEEWKYELRIRYLPKGFLNQFTEDKPTLNFFYQQVKSDYMLEIADQVDQEIALKLGCLEIRRSYWEMRGNALEKKSNYEVLEKDVGLKRFFPKSLLDSVKAKTLRKLIQQTFRQFANLNREESILKFFEILSPVYRFDKECFKCALGSSWIISVELAIGPEEGISYLTDKGCNPTHLADFTQVQTIQYSNSEDKDRKGMLQLKIAGAPEPLTVTAPSLTIAENMADLIDGYCRLVNGTSQSFIIRPQKEGERALPSIPKLANSEKQGMRTHAVSVSETDDYAEIIDEEDTYTMPSTRDYEIQRERIELGRCIGEGQFGDVHQGIYMSPENPALAVAIKTCKNCTSDSVREKFLQEALTMRQFDHPHIVKLIGVITENPVWIIMELCTLGELRSFLQVRKYSLDLASLILYAYQLSTALAYLESKRFVHRDIAARNVLVSSNDCVKLGDFGLSRYMEDSTYYKASKGKLPIKWMAPESINFRRFTSASDVWMFGVCMWEILMHGVKPFQGVKNNDVIGRIENGERLPMPPNCPPTLYSLMTKCWAYDPSRRPRFTELKAQLSTILEEEKAQQEERMRMESRRQATVSWDSGGSDEAPPKPSRPGYPSPRSSEGFYPSPQHMVQTNHYQVSGYPGSHGITAMAGSIYPGQASLLDQTDSWNHRPQEIAMWQPNVEDSTVLDLRGIGQVLPTHLMEERLIRQQQEMEEDQRWLEKEERFLKPDVRLSRGSIDREDGSLQGPIGNQHIYQPVGKPDPAAPPKKPPRPGAPGHLGSLASLSSPADSYNEGVKLQPQEISPPPTANLDRSNDKVYENVTGLVKAVIEMSSKIQPAPPEEYVPMVKEVGLALRTLLATVDETIPLLPASTHREIEMAQKLLNSDLGELINKMKLAQQYVMTSLQQEYKKQMLTAAHALAVDAKNLLDVIDQARLKMLGQTRPH

Variants of: B1
Conditions: with paxi_human PXN

Effect of a mutation on the interaction, decreasing interaction:
L1034S
V928G
V935A
D1039A
L1035A
V1037D
R1042G
L931R
